Experimental data as given in patent US20150361164A1 (EVEC, published 2015).

T1: bovine thymus-derived HMGB1 (bovine, UniProt P10103 2-215)
T1 construct: Bought protein from tissue
T1 sequence (looked up): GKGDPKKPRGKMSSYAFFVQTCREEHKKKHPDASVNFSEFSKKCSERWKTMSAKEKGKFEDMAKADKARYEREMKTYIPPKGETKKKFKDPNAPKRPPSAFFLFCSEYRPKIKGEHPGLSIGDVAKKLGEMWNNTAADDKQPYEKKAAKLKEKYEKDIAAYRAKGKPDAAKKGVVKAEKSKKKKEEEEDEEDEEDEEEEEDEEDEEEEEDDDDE


Target: T1, bovine thymus-derived HMGB1
Test: ELISA on HMGB1-immobilized immunoplate, antibodies adjusted to an equal concentration; OD as % of #10-22 chimera (source of the HMGB1 not named for this figure)

Binder | binding result
D41G (antibody, human IgG1, lambda, V domains shown, co-expressed with the #10-22 chimeric antibody H chain in CHO-K1 cells; also called #10-22 chimeric antibody (L chain) site substitution variant D41G) VH: AVQLVESGGGLVQPKESLKISCAASGFTFSNAAMYWVRQAPGKGLEWVARIRTKPNNYATYYADSVKGRFTISRDDSKSMVYLQMDNLKTEDTAMYYCTAPRRTEGIVSSGVDYWGQGVMVTVSS VL: YELIQPPSASVTLGNTVSITCSGDELPKRYAYWYQQKPGKSIVRVIYKDSERPSGISDRFSGSSSGTTATLTIRDTQAEDEADYYCHSTYSDDKLPVFGGGTKLTVLG | binds
S59P (antibody, human IgG1, lambda, V domains shown, co-expressed with the #10-22 chimeric antibody H chain in CHO-K1 cells; also called #10-22 chimeric antibody (L chain) site substitution variant S59P) VH: AVQLVESGGGLVQPKESLKISCAASGFTFSNAAMYWVRQAPGKGLEWVARIRTKPNNYATYYADSVKGRFTISRDDSKSMVYLQMDNLKTEDTAMYYCTAPRRTEGIVSSGVDYWGQGVMVTVSS VL: YELIQPPSASVTLGNTVSITCSGDELPKRYAYWYQQKPDKSIVRVIYKDSERPSGIPDRFSGSSSGTTATLTIRDTQAEDEADYYCHSTYSDDKLPVFGGGTKLTVLG | binds
D77G (antibody, human IgG1, lambda, V domains shown, co-expressed with the #10-22 chimeric antibody H chain in CHO-K1 cells; also called #10-22 chimeric antibody (L chain) site substitution variant D77G) VH: AVQLVESGGGLVQPKESLKISCAASGFTFSNAAMYWVRQAPGKGLEWVARIRTKPNNYATYYADSVKGRFTISRDDSKSMVYLQMDNLKTEDTAMYYCTAPRRTEGIVSSGVDYWGQGVMVTVSS VL: YELIQPPSASVTLGNTVSITCSGDELPKRYAYWYQQKPDKSIVRVIYKDSERPSGISDRFSGSSSGTTATLTIRGTQAEDEADYYCHSTYSDDKLPVFGGGTKLTVLG | binds

The remaining lines, values ahead:

binding result | Binder
binds | K42Q (antibody, human IgG1, lambda, V domains shown, co-expressed with the #10-22 chimeric antibody H chain in CHO-K1 cells; also called #10-22 chimeric antibody (L chain) site substitution variant K42Q) VH: AVQLVESGGGLVQPKESLKISCAASGFTFSNAAMYWVRQAPGKGLEWVARIRTKPNNYATYYADSVKGRFTISRDDSKSMVYLQMDNLKTEDTAMYYCTAPRRTEGIVSSGVDYWGQGVMVTVSS VL: YELIQPPSASVTLGNTVSITCSGDELPKRYAYWYQQKPDQSIVRVIYKDSERPSGISDRFSGSSSGTTATLTIRDTQAEDEADYYCHSTYSDDKLPVFGGGTKLTVLG
binds | R76S (antibody, human IgG1, lambda, V domains shown, co-expressed with the #10-22 chimeric antibody H chain in CHO-K1 cells; also called #10-22 chimeric antibody (L chain) site substitution variant R76S) VH: AVQLVESGGGLVQPKESLKISCAASGFTFSNAAMYWVRQAPGKGLEWVARIRTKPNNYATYYADSVKGRFTISRDDSKSMVYLQMDNLKTEDTAMYYCTAPRRTEGIVSSGVDYWGQGVMVTVSS VL: YELIQPPSASVTLGNTVSITCSGDELPKRYAYWYQQKPDKSIVRVIYKDSERPSGISDRFSGSSSGTTATLTISDTQAEDEADYYCHSTYSDDKLPVFGGGTKLTVLG
binds | D60E (antibody, human IgG1, lambda, V domains shown, co-expressed with the #10-22 chimeric antibody H chain in CHO-K1 cells; also called #10-22 chimeric antibody (L chain) site substitution variant D60E) VH: AVQLVESGGGLVQPKESLKISCAASGFTFSNAAMYWVRQAPGKGLEWVARIRTKPNNYATYYADSVKGRFTISRDDSKSMVYLQMDNLKTEDTAMYYCTAPRRTEGIVSSGVDYWGQGVMVTVSS VL: YELIQPPSASVTLGNTVSITCSGDELPKRYAYWYQQKPDKSIVRVIYKDSERPSGISERFSGSSSGTTATLTIRDTQAEDEADYYCHSTYSDDKLPVFGGGTKLTVLG

Target: T1, bovine thymus-derived HMGB1
Test: ELISA on HMGB1-immobilized immunoplate, antibodies adjusted to an equal concentration; OD as % of EV007156 (L) + #10-22 chimera (H) (source of the HMGB1 not named for this figure)

Binder | binding result
#10-22 chimeric antibody (H chain) site substitution variant A94R (antibody, human IgG1, lambda, V domains shown, Variant H chain co-expressed with EV007156L in CHO-K1 cells) VH: AVQLVESGGGLVQPKESLKISCAASGFTFSNAAMYWVRQAPGKGLEWVARIRTKPNNYATYYADSVKGRFTISRDDSKSMVYLQMDNLKTEDTAMYYCTRPRRTEGIVSSGVDYWGQGVMVTVSS VL: YELTQPPSVSVSPGQTASITCSGDELPKRYAYWYQQKPGQSIVRVIYKDSERPSGIPERFSGSSSGTTATLTISGTQAEDEADYYCHSTYSDDKLPVFGGGTKLTVLG | binds
K15G (antibody, human IgG1, lambda, co-expressed with EV007156L in CHO-K1 cells; also called #10-22 chimeric antibody (H chain) site substitution variant K15G; copies: 2 + 2) heavy: not shown light: YELTQPPSVSVSPGQTASITCSGDELPKRYAYWYQQKPGQSIVRVIYKDSERPSGIPERFSGSSSGTTATLTISGTQAEDEADYYCHSTYSDDKLPVFGGGTKLTVLGQPKAAPSVTLFPPSSEELQANKATLVCLISDFYPGAVTVAWKADSSPVKAGVETTTPSKQSNNKYAASSYLSLTPEQWKSHRSYSCQVTHEGSTVEKTVAPTECS | binds
V78A (antibody, human IgG1, lambda, V domains shown, co-expressed with EV007156L in CHO-K1 cells; also called #10-22 chimeric antibody (H chain) site substitution variant V78A; copies: 2 + 2) VH: AVQLVESGGGLVQPKESLKISCAASGFTFSNAAMYWVRQAPGKGLEWVARIRTKPNNYATYYADSVKGRFTISRDDSKSMAYLQMDNLKTEDTAMYYCTAPRRTEGIVSSGVDYWGQGVMVTVSS VL: YELTQPPSVSVSPGQTASITCSGDELPKRYAYWYQQKPGQSIVRVIYKDSERPSGIPERFSGSSSGTTATLTISGTQAEDEADYYCHSTYSDDKLPVFGGGTKLTVLG | binds
V107T (antibody, human IgG1, lambda, co-expressed with EV007156L in CHO-K1 cells; also called #10-22 chimeric antibody (H chain) site substitution variant V107T; copies: 2 + 2) heavy: not shown light: YELTQPPSVSVSPGQTASITCSGDELPKRYAYWYQQKPGQSIVRVIYKDSERPSGIPERFSGSSSGTTATLTISGTQAEDEADYYCHSTYSDDKLPVFGGGTKLTVLGQPKAAPSVTLFPPSSEELQANKATLVCLISDFYPGAVTVAWKADSSPVKAGVETTTPSKQSNNKYAASSYLSLTPEQWKSHRSYSCQVTHEGSTVEKTVAPTECS | binds
A1E (antibody, human IgG1, lambda, co-expressed with EV007156L in CHO-K1 cells; also called #10-22 chimeric antibody (H chain) site substitution variant A1E; copies: 2 + 2) heavy: not shown light: YELTQPPSVSVSPGQTASITCSGDELPKRYAYWYQQKPGQSIVRVIYKDSERPSGIPERFSGSSSGTTATLTISGTQAEDEADYYCHSTYSDDKLPVFGGGTKLTVLGQPKAAPSVTLFPPSSEELQANKATLVCLISDFYPGAVTVAWKADSSPVKAGVETTTPSKQSNNKYAASSYLSLTPEQWKSHRSYSCQVTHEGSTVEKTVAPTECS | binds
M108L (antibody, human IgG1, lambda, co-expressed with EV007156L in CHO-K1 cells; also called #10-22 chimeric antibody (H chain) site substitution variant M108L; copies: 2 + 2) heavy: not shown light: YELTQPPSVSVSPGQTASITCSGDELPKRYAYWYQQKPGQSIVRVIYKDSERPSGIPERFSGSSSGTTATLTISGTQAEDEADYYCHSTYSDDKLPVFGGGTKLTVLGQPKAAPSVTLFPPSSEELQANKATLVCLISDFYPGAVTVAWKADSSPVKAGVETTTPSKQSNNKYAASSYLSLTPEQWKSHRSYSCQVTHEGSTVEKTVAPTECS | binds

The remaining lines, values ahead:

binding result | Binder
binds | S76N (antibody, human IgG1, lambda, V domains shown, co-expressed with EV007156L in CHO-K1 cells; also called #10-22 chimeric antibody (H chain) site substitution variant S76N; copies: 2 + 2) VH: AVQLVESGGGLVQPKESLKISCAASGFTFSNAAMYWVRQAPGKGLEWVARIRTKPNNYATYYADSVKGRFTISRDDSKNMVYLQMDNLKTEDTAMYYCTAPRRTEGIVSSGVDYWGQGVMVTVSS VL: YELTQPPSVSVSPGQTASITCSGDELPKRYAYWYQQKPGQSIVRVIYKDSERPSGIPERFSGSSSGTTATLTISGTQAEDEADYYCHSTYSDDKLPVFGGGTKLTVLG
binds | P41S (antibody, human IgG1, lambda, V domains shown, co-expressed with EV007156L in CHO-K1 cells; also called #10-22 chimeric antibody (H chain) site substitution variant P41S; copies: 2 + 2) VH: AVQLVESGGGLVQPKESLKISCAASGFTFSNAAMYWVRQASGKGLEWVARIRTKPNNYATYYADSVKGRFTISRDDSKSMVYLQMDNLKTEDTAMYYCTAPRRTEGIVSSGVDYWGQGVMVTVSS VL: YELTQPPSVSVSPGQTASITCSGDELPKRYAYWYQQKPGQSIVRVIYKDSERPSGIPERFSGSSSGTTATLTISGTQAEDEADYYCHSTYSDDKLPVFGGGTKLTVLG
binds | I20L (antibody, human IgG1, lambda, co-expressed with EV007156L in CHO-K1 cells; also called #10-22 chimeric antibody (H chain) site substitution variant I20L; copies: 2 + 2) heavy: not shown light: YELTQPPSVSVSPGQTASITCSGDELPKRYAYWYQQKPGQSIVRVIYKDSERPSGIPERFSGSSSGTTATLTISGTQAEDEADYYCHSTYSDDKLPVFGGGTKLTVLGQPKAAPSVTLFPPSSEELQANKATLVCLISDFYPGAVTVAWKADSSPVKAGVETTTPSKQSNNKYAASSYLSLTPEQWKSHRSYSCQVTHEGSTVEKTVAPTECS
binds | N82bS (antibody, human IgG1, lambda, V domains shown, co-expressed with EV007156L in CHO-K1 cells; also called #10-22 chimeric antibody (H chain) site substitution variant N82bS; copies: 2 + 2) VH: AVQLVESGGGLVQPKESLKISCAASGFTFSNAAMYWVRQAPGKGLEWVARIRTKPNNYATYYADSVKGRFTISRDDSKSMVYLQMDSLKTEDTAMYYCTAPRRTEGIVSSGVDYWGQGVMVTVSS VL: YELTQPPSVSVSPGQTASITCSGDELPKRYAYWYQQKPGQSIVRVIYKDSERPSGIPERFSGSSSGTTATLTISGTQAEDEADYYCHSTYSDDKLPVFGGGTKLTVLG
binds | E16G (antibody, human IgG1, lambda, co-expressed with EV007156L in CHO-K1 cells; also called #10-22 chimeric antibody (H chain) site substitution variant E16G; copies: 2 + 2) heavy: not shown light: YELTQPPSVSVSPGQTASITCSGDELPKRYAYWYQQKPGQSIVRVIYKDSERPSGIPERFSGSSSGTTATLTISGTQAEDEADYYCHSTYSDDKLPVFGGGTKLTVLGQPKAAPSVTLFPPSSEELQANKATLVCLISDFYPGAVTVAWKADSSPVKAGVETTTPSKQSNNKYAASSYLSLTPEQWKSHRSYSCQVTHEGSTVEKTVAPTECS
binds | D82aN (antibody, human IgG1, lambda, V domains shown, co-expressed with EV007156L in CHO-K1 cells; also called #10-22 chimeric antibody (H chain) site substitution variant D82aN; copies: 2 + 2) VH: AVQLVESGGGLVQPKESLKISCAASGFTFSNAAMYWVRQAPGKGLEWVARIRTKPNNYATYYADSVKGRFTISRDDSKSMVYLQMNNLKTEDTAMYYCTAPRRTEGIVSSGVDYWGQGVMVTVSS VL: YELTQPPSVSVSPGQTASITCSGDELPKRYAYWYQQKPGQSIVRVIYKDSERPSGIPERFSGSSSGTTATLTISGTQAEDEADYYCHSTYSDDKLPVFGGGTKLTVLG
binds | M89V (antibody, human IgG1, lambda, V domains shown, co-expressed with EV007156L in CHO-K1 cells; also called #10-22 chimeric antibody (H chain) site substitution variant M89V; copies: 2 + 2) VH: AVQLVESGGGLVQPKESLKISCAASGFTFSNAAMYWVRQAPGKGLEWVARIRTKPNNYATYYADSVKGRFTISRDDSKSMVYLQMDNLKTEDTAVYYCTAPRRTEGIVSSGVDYWGQGVMVTVSS VL: YELTQPPSVSVSPGQTASITCSGDELPKRYAYWYQQKPGQSIVRVIYKDSERPSGIPERFSGSSSGTTATLTISGTQAEDEADYYCHSTYSDDKLPVFGGGTKLTVLG
binds | M77T (antibody, human IgG1, lambda, V domains shown, co-expressed with EV007156L in CHO-K1 cells; also called #10-22 chimeric antibody (H chain) site substitution variant M77T; copies: 2 + 2) VH: AVQLVESGGGLVQPKESLKISCAASGFTFSNAAMYWVRQAPGKGLEWVARIRTKPNNYATYYADSVKGRFTISRDDSKSTVYLQMDNLKTEDTAMYYCTAPRRTEGIVSSGVDYWGQGVMVTVSS VL: YELTQPPSVSVSPGQTASITCSGDELPKRYAYWYQQKPGQSIVRVIYKDSERPSGIPERFSGSSSGTTATLTISGTQAEDEADYYCHSTYSDDKLPVFGGGTKLTVLG
